The source of these data is IntAct's records for PubMed 15886098.

B1: Ras and Rab interactor 1 (Homo sapiens), Q13671 (parent)
chain: MESPGESGAGSPGAPSPSSFTTGHLAREKPAQDPLYDVPNASGGQAGGPQRPGRVVSLRERLLLTRPVWLQLQANAAAALHMLRTEPPGTFLVRKSNTRQCQALCMRLPEASGPSFVSSHYILESPGGVSLEGSELMFPDLVQLICAYCHTRDILLLPLQLPRAIHHAATHKELEAISHLGIEFWSSSLNIKAQRGPAGGPVLPQLKARSPQELDQGTGAALCFFNPLFPGDLGPTKREKFKRSFKVRVSTETSSPLSPPAVPPPPVPVLPGAVPSQTERLPPCQLLRRESSVGYRVPAGSGPSLPPMPSLQEVDCGSPSSSEEEGVPGSRGSPATSPHLGRRRPLLRSMSAAFCSLLAPERQVGRAAAALMQDRHTAAGQLVQDLLTQVRAGPEPQELQGIRQALSRARAMLSAELGPEKLLSPKRLEHVLEKSLHCSVLKPLRPILAARLRRRLAADGSLGRLAEGLRLARAQGPGAFGSHLSLPSPVELEQVRQKLLQLLRTYSPSAQVKRLLQACKLLYMALRTQEGEGAGADEFLPLLSLVLAHCDLPELLLEAEYMSELLEPSLLTGEGGYYLTSLSASLALLSGLGQAHTLPLSPVQELRRSLSLWEQRRLPATHCFQHLLRVAYQDPSSGCTSKTLAVPPEASIATLNQLCATKFRVTQPNTFGLFLYKEQGYHRLPPGALAHRLPTTGYLVYRRAEWPETQGAVTEEEGSGQSEARSRGEEQGCQGDGDAGVKASPRDIREQSETTAEGGQGQAQEGPAQPGEPEAEGSRAAEE
B2: Tyrosine-protein kinase ABL2 (Homo sapiens), P42684 (parent)
chain: MGQQVGRVGEAPGLQQPQPRGIRGSSAARPSGRRRDPAGRTTETGFNIFTQHDHFASCVEDGFEGDKTGGSSPEALHRPYGCDVEPQALNEAIRWSSKENLLGATESDPNLFVALYDFVASGDNTLSITKGEKLRVLGYNQNGEWSEVRSKNGQGWVPSNYITPVNSLEKHSWYHGPVSRSAAEYLLSSLINGSFLVRESESSPGQLSISLRYEGRVYHYRINTTADGKVYVTAESRFSTLAELVHHHSTVADGLVTTLHYPAPKCNKPTVYGVSPIHDKWEMERTDITMKHKLGGGQYGEVYVGVWKKYSLTVAVKTLKEDTMEVEEFLKEAAVMKEIKHPNLVQLLGVCTLEPPFYIVTEYMPYGNLLDYLRECNREEVTAVVLLYMATQISSAMEYLEKKNFIHRDLAARNCLVGENHVVKVADFGLSRLMTGDTYTAHAGAKFPIKWTAPESLAYNTFSIKSDVWAFGVLLWEIATYGMSPYPGIDLSQVYDLLEKGYRMEQPEGCPPKVYELMRACWKWSPADRPSFAETHQAFETMFHDSSISEEVAEELGRAASSSSVVPYLPRLPILPSKTRTLKKQVENKENIEGAQDATENSASSLAPGFIRGAQASSGSPALPRKQRDKSPSSLLEDAKETCFTRDRKGGFFSSFMKKRNAPTPPKRSSSFREMENQPHKKYELTGNFSSVASLQHADGFSFTPAQQEANLVPPKCYGGSFAQRNLCNDDGGGGGGSGTAGGGWSGITGFFTPRLIKKTLGLRAGKPTASDDTSKPFPRSNSTSSMSSGLPEQDRMAMTLPRNCQRSKLQLERTVSTSSQPEENVDRANDMLPKKSEESAAPSRERPKAKLLPRGATALPLRTPSGDLAITEKDPPGVGVAGVAAAPKGKEKNGGARLGMAGVPEDGEQPGWPSPAKAAPVLPTTHNHKVPVLISPTLKHTPADVQLIGTDSQGNKFKLLSEHQVTSSGDKDRPRRVKPKCAPPPPPVMRLLQHPSICSDPTEEPTALTAGQSTSETQEGGKKAALGAVPISGKAGRPVMPPPQVPLPTSSISPAKMANGTAGTKVALRKTKQAAEKISADKISKEALLECADLLSSALTEPVPNSQLVDTGHQLLDYCSGYVDCIPQTRNKFAFREAVSKLELSLQELQVSSAAAGVPGTNPVLNNLLSCVQEISDVVQR
partner: B1 chain

Variants of B1 are the subject of one assay. The following applies: with abl2_human ABL2, P42684.
Regarding Y36F;Y121F;Y148F, the “effect of a mutation on the interaction” value is “decreasing interaction”.

Variants of B2 are the subject of another assay. The conditions noted are these: with rin1_human RIN1, Q13671.
K317R: the “effect of a mutation on the interaction” value is recorded as “decreasing interaction”.
